In assay [1] the target is T1, mouse RANK-L (mouse, UniProt O35235 158-316, limits assumed).
T1 construct: also called murine RANK-L
T1 sequence (looked up): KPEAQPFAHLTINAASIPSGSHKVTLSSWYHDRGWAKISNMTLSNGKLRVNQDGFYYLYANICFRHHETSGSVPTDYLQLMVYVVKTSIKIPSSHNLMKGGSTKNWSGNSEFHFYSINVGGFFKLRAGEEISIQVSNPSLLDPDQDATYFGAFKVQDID
The assay is described as follows: ELISA, set-up as for human RANK-L. Here is the method:
(§1) Therefore 2 μg/ml neutravidin was coated overnight at 4° C. The plates were washed 5 times with 300 μl PBS and then blocked with […] 1% casein/PBS for 2 hours at room temperature. […] After extensive washing with PBS, varying concentrations of Nanobodies starting from 500 nM to 160 pM diluted in 1% casein/PBS were added to the wells and the plates were incubated for 1 hour at room temperature. Bound Nanobodies were detected by subsequent incubations of a primary mouse anti-myc antibody and a secondary anti mouse-HRP conjugate (DAKO, Glostrup, Denmark) and using TMB-H2O2 (Pierce, Rockford, Ill., USA) substrate cocktail. The reaction was stopped with H₂SO₄ and the OD was read at 450 nm.
A general note: In an ELISA, binding on a coated surface is turned into a signal by an enzyme label.

The target in assay [2] is T2, human RANK-L (human, UniProt O14788 140-317, limits assumed).
T2 construct: Soluble protein, used coated, biotinylated or labelled in ELISA, AlphaScreen, FMAT and Biacore; also called hRANK-L; soluble human RANK-L
T2 sequence (looked up): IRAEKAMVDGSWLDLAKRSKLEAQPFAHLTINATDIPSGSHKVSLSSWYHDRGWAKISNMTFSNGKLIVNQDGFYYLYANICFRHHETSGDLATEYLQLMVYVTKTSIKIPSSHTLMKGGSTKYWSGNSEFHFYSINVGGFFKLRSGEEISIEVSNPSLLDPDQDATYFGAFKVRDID
The assay is described as follows: AlphaScreen, biotin-hRANK-L / RANK-huFc beads. Here is the method: To this mixture, the RANK acceptor beads and the streptavidin donor beads were added and further incubated for 1 hour at room temperature. Fluorescence was measured by reading plates on the EnVision Multilabel Plate Reader (Perkin Elmer) using an excitation wavelength of 680 nm and an emission wavelength of 520 nm.

The target of assay [3] is T2, human RANK-L. The assay is described as follows: ELISA (ED50), biotin-hRANK-L on neutravidin. On the procedure: as §1
Assay [4] deals with T2, human RANK-L. The assay is described as follows: SPR Biacore 3000, hRANK-L on CM5, 100 nM Nanobody. Here is the method: (§2) Binding kinetics of the humanized versions of Nanobodu RANL13 were also analysed by Surface Plasmon Resonance (Biacore 3000). […] Nanobody binding was assessed at one concentration (100 nM). Each Nanobody was injected for 4 minutes at a flow rate of 45 μl/min to allow binding to chip-bound antigen. Next, binding buffer without Nanobody was sent over the chip at the same flow rate to allow spontaneous dissociation of bound Nanobody.

The target in assay [5] is T2, human RANK-L. The assay is described as follows: SPR Biacore 3000, hRANK-L on CM5, 100 nM Nanobody; only indicative (one concentration). Here is the method: as §2
Background: Surface plasmon resonance follows binding to a sensor surface in real time, without labels.

For assay [6], the target named is T2, human RANK-L. The assay is described as follows: AlphaScreen, biotin-hRANK-L / RANK-huFc beads. This is another data set of the same source. On the technique in general: Bead proximity is the source of the signal in Alpha formats.
Assay [7] deals with T2, human RANK-L. The assay is described as follows: AlphaScreen, biotin-hRANK-L / RANK-huFc beads. This is another data set of the same source.

Where a chain is given by its changes, count along the chain named. Like-named read-outs stand apart in the source and are kept apart here.

B1: RANKL7 (VHH)
VHH: EVQLVESEGGPVQSGGSLRLSCAASGRTFSVSTIAWFRQAPGEGREFVAAIYPSGRNAYVADSVKGRFTISRDNAKKTVYLQMNSLKPEDTAAYYCAAHQPSGSYYSAEAYAYWGQGTQVTVSS
notes: not shown: c-myc and His6 tags
As for B1, the binding result in assay [1] was “no binding (tested: 500 nM to 160 pM)”. In assay [2], this molecule returned a concentration for half-maximal inhibition (IC50) of 459 pM. The EC50 in assay [3] came out at 376 pM.

B2: RANKL14 (VHH)
VHH: EVQLVESGGGLVQAGGSLRLSCAASGRTSSYYTMSWFRQDPGKEREFVAAVPLSGNTYYADPVRGRFTISRDNAKNTADLQMNSLKPEDTAVYYCAARASGSIYNRGSYAYWGQGTQVTVSS
notes: as for B1
On to B2, for which the binding result in assay [1] is on record as “no binding (tested: 500 nM to 160 pM)”. In assay [2], this molecule registered an IC50 of 1750 pM. The molecule also gave an EC50 in assay [3] of 574 pM.

B3: RANKL11 (VHH)
VHH: EVQLVESGGGLVQAGGSLRLSCAASGRTFSSKTMGWFRQPPGNEREFVAAITPTSRTTYYADSVKGRFTISRDNAKNTVSLQMNSLKFEDTAAYYCVAVRRYGSPPHDGSSYEYWGQGTQVTVSS
notes: as for B1
For B3, the binding result in assay [1] is “no binding (tested: 500 nM to 160 pM)”. In addition, the IC50 in assay [2] amounted to 1170 pM. The molecule also displayed an EC50 in assay [3] of 517 pM.

B4: RANKL12 (VHH)
VHH: EVQLVESGGGWMQAGGSLRLSCAASGRTFTMAWFRQAPGKEREFVAAITGSGRSTYYTDSVKGRFTISRDNAKNTAYLQMKSLKPEDTAVYYCAGLRGLGLEYDSAKSYSYWGQGTQVTVSS
notes: as for B1
In the case of B4, in assay [1], the binding result is given as “no binding (tested: 500 nM to 160 pM)”. The molecule also showed an IC50 in assay [2] of 627 pM. Besides, the EC50 in assay [3] was 399 pM.

B5: RANKL8 (VHH)
VHH: EVQLVESGGGSVQPGGSLRLSCAASGGTFSRYAMGWFRQAPGKEREFVSAISVGGTYQYYVDSVKGRFTISRDNAESTVYLQMNSLKPEDTAVYYCAGDASPYGYLREYTATRFDYWGQGTQVTVSS
notes: as for B1
With B5, the binding result in assay [1] is listed as “no binding (tested: 500 nM to 160 pM)”. Further, in assay [2], the IC50 is 755 pM. This molecule showed an EC50 in assay [3] of 652 pM.

B6: RANKL23 (VHH)
VHH: EVQLVESGGGLVQAGGSLRLSCAASGLTTVYTMAWFRQAPGKEREFVAAITRSGKTTYYADSVKGRFTISRDNAKNTVNLQMNSLKPDDTAVYYCAAKALLGMTNPAGYEYWGQETQVTVSS
notes: also called 9H5; not shown: c-myc and His6 tags
Regarding B6, the binding result in assay [1] is recorded as “no binding (tested: 500 nM to 160 pM)”. For the same molecule, the IC50 in assay [2] stood at 3530 pM. The molecule further displayed an EC50 in assay [3] of 679 pM.

B7: RANKL16 (VHH)
VHH: EVQLVESGGGLVQAGGSLRLSCVASRRTFSSYAMGWFRQVPGKERDFVAAISTGSITIYGDSVKGRFTISRDNAKNTVYLQMNSLKPEDTAVYYCAAGKREPYLRQYTASNPYDYWGQGTQVTVSS
notes: as for B1
Turning to B7, the binding result in assay [1] was “no binding (tested: 500 nM to 160 pM)”. This molecule also had an IC50 in assay [2] of 2250 pM. In assay [3], this molecule had an EC50 of 953 pM.

B8: RANKL21 (VHH)
VHH: B7 VHH with S30N, M34V, K43E, I56V, G60A, K99N
notes: as for B1
In the case of B8, the binding result in assay [1] was “no binding (tested: 500 nM to 160 pM)”. This molecule also returned an IC50 in assay [2] of 1580 pM. In addition, the EC50 in assay [3] is 861 pM.

B9: RANKL13basic (VHH)
VHH: EVQLVESGGGLVQPGGSLRLSCAASGRTFRSYPMGWFRQAPGKGREFVASITGSGGSTYYADSVKGRFTISRDNAKNTLYLQMNSLRPEDTAVYSCAAYIRPDTYLSRDYRKYDYWGQGTLVTVSS
notes: Humanized variant of RANKL13; also called RANKL13humbasic
Turning to B9, the koff in assay [4] was found to be 0.000189 s⁻¹. In assay [5], the Kd came out at 214 pM and the kon came to 885000 M⁻¹ s⁻¹. In addition, the IC50 in assay [6] turned out to be 159 pM.

B10: RANKL13hum2 (VHH, name in Kabat numbering)
VHH: B9 VHH with R30S
Consider B10, for which, in assay [4], the koff was 0.000232 s⁻¹. In assay [5], this molecule returned a Kd of 880 pM and a kon of 264000 M⁻¹ s⁻¹. In assay [6], inhibition was half-maximal at 191 pM (IC50).

B11: RANKL13hum1 (VHH)
VHH: B9 VHH with R27F
B11 gave a koff in assay [4] of 0.000145 s⁻¹. In assay [5], this molecule came in with a Kd of 106 pM and a kon of 1.37e+06 M⁻¹ s⁻¹. Besides, it took 123 pM to reach half-maximal inhibition in assay [6] (IC50).

B12: RANKL13hum3 (VHH, name in Kabat numbering)
VHH: B9 VHH with A49S
notes: also called RANL13hum3
B12 showed a koff in assay [4] of 0.000174 s⁻¹. Besides, in assay [5], binding was characterised by a dissociation constant (Kd) of 264 pM and the kon was 659000 M⁻¹ s⁻¹. The molecule further gave an IC50 in assay [6] of 196 pM.

B13: RANKL19 (VHH)
VHH: EVQLVESGGGLVQAGDSLRLSCAASGRTVTMGWFRQAPGKEREFVASITGSGSVTNYADSVKGRFTISRDNAKNTVFLQMNSLKPEDTAVYYCAAYLPSPYYSSYYDSTKYEYWGQGTQVTVSS
notes: as for B1
For B13, the binding result in assay [1] is on record as “no binding (tested: 500 nM to 160 pM)”. In assay [2], this molecule showed an IC50 of 2240 pM. For the same molecule, in assay [3], the EC50 was 506 pM.

B14: RANKL20 (VHH)
VHH: EVQLVESGGGLVQAGDSLRLSCAASGRTFTMGWFRQAPGTEREFVAAISGSGKITNYADSVKGRFTISRDHAKNTVFLQMDSLKPEDTAVYYCAGYLRSPYYSSFYDSAKYEYWGQGTQVTVSS
notes: as for B1
On to B14, for which the binding result in assay [1] was “no binding (tested: 500 nM to 160 pM)”. Moreover, in assay [2], half-maximal inhibition (IC50) was put at 1360 pM. The molecule further gave an EC50 in assay [3] of 306 pM.

B15: RANKL4 (VHH)
VHH: KVQLVESGGGLVQTGDSLRLSCAASGRAIGSYAMGWFRQAPGKEREFVAVINYRGSSLKYADRVKGRFTISRDNAKNMVYLQMNSLKPDDTAVYYCAAQTSGADFGTTPQRYTYWGQGTQVTVSS
notes: as for B1
Take B15: the binding result in assay [1] is on record as “no binding (tested: 500 nM to 160 pM)”. The molecule also had an IC50 in assay [2] of 582 pM. The molecule further gave an EC50 in assay [3] of 380 pM.

B16: RANKL1 (VHH)
VHH: EVQLVESGGGLVQAGGSLRLSCAVSGRTFSSSTMAWFRQPPGGERDFVASISTSGTRTLYADSVKGRFTISRDNAKSTGYLQMNSLKPEDTAVYFCAAVNRRGWEFWRLASGYDYWGLGAQVTVSS
notes: as for B1
B16: the binding result in assay [1] is on record as “no binding (tested: 500 nM to 160 pM)”. In addition, 739 pM corresponded to half-maximal inhibition in assay [2] (IC50). This molecule also returned an EC50 in assay [3] of 619 pM.

B17: RANKL22 (VHH)
VHH: EVQLVESGGGLMQTGGSLRLSCAASERTSRNYGMGWFRQAPGKEREFVAAITSAGGTTYYGDFVKGRFTISRDSAKYTVYLQMNSLKPEDTAVYWCAAKLQIGGRWHNLNDYGYRGQGTQVTVSS
notes: also called 7D12; not shown: c-myc and His6 tags
For B17, in assay [1], the binding result is reported as “no binding (tested: 500 nM to 160 pM)”. This molecule also returned an IC50 in assay [2] of 3020 pM. In addition, the EC50 in assay [3] stood at 379 pM.

B18: RANKL133 (VHH)
chain: EVQLVESGGGLVQAGGSLRLSCAASGRTFRSYPMGWFRQAPGKEREFVASITGSGGSTYYADSVKGRFTISRDNAKNTVYLQMNSLRPEDTAVYSCAAYIRPDTYLSRDYRKYDYWGQGTQVTVSSGGGGSGGGGSGGGGSGGGGSGGGGSGGGGSEVQLVESGGGLVQAGGSLRLSCAASGRTFRSYPMGWFRQAPGKEREFVASITGSGGSTYYADSVKGRFTISRDNAKNTVYLQMNSLRPEDTAVYSCAAYIRPDTYLSRDYRKYDYWGQGTQVTVS
notes: Bivalent Nanobody; also called RANKL13-30GS-RANKL13
Turning to B18, in assay [7], the midpoint of inhibition, the IC50, lay at 26 pM. This counts as picomolar.

B19: RANKL17 (VHH)
VHH: EVQLVESGGGLVQVGDSLRLSCEASGRSRFSTYVMGWFRQAPGKEREFVAAVSWSSGNAYYIDSAKGRFATSRDTAKNIMYLQMNSLKPEDTAVYTCAAGRGYGLLSEYTQAPRYDYWGQGTQVTVSS
notes: as for B1
As for B19, in assay [1], the binding result is “no binding (tested: 500 nM to 160 pM)”. The molecule further gave an IC50 in assay [2] of 737 pM. Further, a half-maximal effect in assay [3] (EC50) was put at 453 pM.

Broadly, the IC50 is the midpoint of a concentration-inhibition curve. Low values mean inhibition by little substance, high ones a need for much substance. As a reminder, the EC50 is the concentration that produces a half-maximal response. As usually defined, the koff is the first-order rate constant of dissociation. For orientation: Kd means the constant that tells how readily two partners part at equilibrium. As usually defined, the kon is the second-order rate constant of association. Higher therefore signals fast association.
